From US20180057567A1 (Sanofi, published 2018)

T1: recombinant human IL4 (human, UniProt P05112 25-153)
T1 construct: Bought protein
T1 sequence (looked up): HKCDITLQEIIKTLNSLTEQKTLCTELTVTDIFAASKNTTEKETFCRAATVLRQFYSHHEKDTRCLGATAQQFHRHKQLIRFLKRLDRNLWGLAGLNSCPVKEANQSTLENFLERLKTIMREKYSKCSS

T2: CD3
T2 chain 1: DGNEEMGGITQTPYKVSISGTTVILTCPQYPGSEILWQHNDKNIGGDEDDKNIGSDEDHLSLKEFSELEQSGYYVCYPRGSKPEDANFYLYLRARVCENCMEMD
T2 chain 2: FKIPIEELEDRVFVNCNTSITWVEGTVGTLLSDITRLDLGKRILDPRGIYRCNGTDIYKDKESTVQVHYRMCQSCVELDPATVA

T3: CD123 (UniProt P26951 19-305, limits assumed)
T3 sequence (looked up): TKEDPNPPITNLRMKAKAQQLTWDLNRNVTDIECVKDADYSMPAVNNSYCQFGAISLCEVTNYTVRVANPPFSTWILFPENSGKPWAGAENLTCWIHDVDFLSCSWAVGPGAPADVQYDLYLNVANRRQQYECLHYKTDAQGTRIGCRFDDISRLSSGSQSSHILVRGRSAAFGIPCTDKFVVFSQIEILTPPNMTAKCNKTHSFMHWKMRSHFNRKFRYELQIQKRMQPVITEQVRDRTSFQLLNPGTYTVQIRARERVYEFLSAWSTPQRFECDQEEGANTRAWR


How the values were obtained:
recombinant human IL4 = biological target: T1, recombinant human IL4; experiment: SPR (Biacore)
CD3 = biological target: T2, CD3; experiment: SPR (Biacore), CD3 as analyte
CD123 = biological target: T3, CD123; experiment: SPR (Biacore), CD123 as analyte

| binding result (recombinant human IL4) | Kd (CD3) | koff (CD3) | kon (CD3) | Kd (CD123) | koff (CD123) | kon (CD123) | Binder |
| --- | --- | --- | --- | --- | --- | --- | --- |
| binds | – | – | – | – | – | – | bispecific Fab-like fragment in the CODV bivalent Fab configuration (ECH2), anti-IL13 (huBB13) x anti-IL4 (hu8D4-8) (Example 6) (bispecific antibody, An 8x histidine tag was added for purification; also called CH2E-pseudo-CODV antibody) chain 1: EVQLKESGPGLVAPGGSLSITCTVSGFSLTDSSINWVRQPPGKGLEWLGMIWGDGRIDYADALKSRLSISKDSSKSQVFLEMTSLRTDDTATYYCARDGYFPYAMDFWGQGTSVTVSSSQVQLQQSGPELVKPGASVKISCKASGYSFTSYWIHWIKQRPGQGLEWIGMIDPSDGETRLNQRFQGRATLTVDESTSTAYMQLRSPTSEDSAVYYCTRLKEYGNYDSFYFDVWGAGTLVTVSSRTASTKGPVASRDFTPPTVKILQSSCDGGGHFPPTIQLLCLVSGYTPGTIQITWLEDGQVMDVDLSTASTTQEGELASTQSELTLSQKHWLSDRTYTCQVTYQGHTFEDSTKKCAGSHHHHHHHH chain 2: DIQMTQSPASLSVSVGDTITLTCHASQNIDVWLSWFQQKPGNIPKLLIYKASNLHTGVPSRFSGSGSGTGFTLTISSLQPEDIATYYCQQAHSYPFTFGGGTKLEIKGQPKAAPDIVLTQSPASLAVSLGQRATISCRASESVDSYGQSYMHWYQQKAGQPPKLLIYLASNLESGVPARFSGSGSRTDFTLTIDPVQAEDAATYYCQQNAEDSRTFGGGTKLEIKTKGPSRTVASRDFTPPTVKILQSSCDGGGHFPPTIQLLCLVSGYTPGTIQITWLEDGQVMDVDLSTASTTQEGELASTQSELTLSQKHWLSDRTYTCQVTYQGHTFEDSTKKCA |
| – | 5.71 nM | 0.0009 s⁻¹ | 158000 M⁻¹ s⁻¹ | 0.0838 nM | 3.77e-05 s⁻¹ | 450000 M⁻¹ s⁻¹ | antibody in Bivalent Fab configuration, MCH2 domain of one Fab-like fragment (CD3) linked to a variable domain of the other Fab (CD123) (Example 5) (bispecific antibody, also called bispecific bivalent Fab; bivalent bispecific Fab fragment) light 1: DIVMTQTPLSLSVTPGQPASISCKSSQSLVHNNANTYLSWYLQKPGQSPQSLIYKVSNRFSGVPDRFSGSGSGTDFTLKISRVEAEDVGVYYCGQGTQYPFTFGSGTKVEIKRTVIAELPPKVSVFVPPRDGFFGNPRKSKLICQATGFSPRQIQVSWLREGKQVGSGVTTDQVQAEAKESGPTTYKVTSTLTIKESDWLGQSMFTCRVDHRGLTFQQNASSMCVP heavy: QVQLVESGGGVVQPGRSLRLSCAASGFTFTKAWMHWVRQAPGKQLEWVAQIKDKSNSYATYYADSVKGRFTISRDDSKNTLYLQMNSLRAEDTAVYYCRGVYYALSPFDYWGQGTLVTVSSGGVIAELPPKVSVFVPPRDGFFGNPRKSKLICQATGFSPRQIQVSWLREGKQVGSGVTTDQVQAEAKESGPTTYKVTSTLTIKESDWLGQSMFTCRVDHRGLTFQQNASSMCVPGGGSEVQLVQSGAEVKKPGESLKISCKGSGYSFTDYYMKWARQMPGKGLEWMGDIIPSSGATFYNQKFKGQVTISADKSISTTYLQWSSLKASDTAMYYCARSHLLRASWFAYWGQGTMVTVSSASTKGPSVFPLAPSSKSTSGGTAALGCLVKDYFPEPVTVSWNSGALTSGVHTFPAVLQSSGLYSLSSVVTVPSSSLGTQTYICNVNHKPSNTKVDKKVEPKSCDKTHTHHHHHH light 2: not shown |
| binds | – | – | – | – | – | – | F(ab')2-like antibody with ECH2 replacing the hinge region, anti-IL4 (hu8D4-8) CH1/kappa Fab and anti-IL13 (huBB13) MCH2 Fab (Example 7) (bispecific antibody, also called pseudo hinge-CH2E-hybrid-Fab2) heavy 1: VQLQQSGPELVKPGASVKISCKASGYSFTSYWIHWIKQRPGQGLEWIGMIDPSDGETRLNQRFQGRATLTVDESTSTAYMQLRSPTSEDSAVYYCTRLKEYGNYDSFYFDVWGAGTLVTVSSASTKGPSVFPLAPSSKSTSGGTAALGCLVKDYFPEPVTVSWNSGALTSGVHTFPAVLQSSGLYSLSSVVTVPSSSLGTQTYICNVNHKPSNTKVDKKVEPKSCGSGSGSVASRDFTPPTVKILQSSCDGGGHFPPTIQLLCLVSGYTPGTIQITWLEDGQVMDVDLSTASTTQEGELASTQSELTLSQKHWLSDRTYTCQVTYQGHTFEDSTKKCA light 1: DIQMTQSPASLSVSVGDTITLTCHASQNIDVWLSWFQQKPGNIPKLLIYKASNLHTGVPSRFSGSGSGTGFTLTISSLQPEDIATYYCQQAHSYPFTFGGGTKLEIKRTVAAPSVFIFPPSDEQLKSGTASVVCLLNNFYPREAKVQWKVDNALQSGNSQESVTEQDSKDSTYSLSSTLTLSKADYEKHKVYACEVTHQGLSSPVTKSFNRGEC heavy 2: EVQLKESGPGLVAPGGSLSITCTVSGFSLTDSSINWVRQPPGKGLEWLGMIWGDGRIDYADALKSRLSISKDSSKSQVFLEMTSLRTDDTATYYCARDGYFPYAMDFWGQGTSVTVSSGSGSGSVIAELPPKVSVFVPPRDGFFGNPRKSKLICQATGFSPRQIQVSWLREGKQVGSGVTTDQVQAEAKESGPTTYKVTSTLTIKESDWLGQSMFTCRVDHRGLTFQQQASSMCVPGSGSGSVASRDFTPPTVKILQSSCDGGGHFPPTIQLLCLVSGYTPGTIQITWLEDGQVMDVDLSTASTTQEGELASTQSELTLSQKHWLSDRTYTCQVTYQGHTFEDSTKKCAGSHHHHHHHH light 2: DIVLTQSPASLAVSLGQRATISCRASESVDSYGQSYMHWYQQKAGQPPKLLIYLASNLESGVPARFSGSGSRTDFTLTIDPVQAEDAATYYCQQNAEDSRTFGGGTKLEIKRTVIAELPPKVSVFVPPRDGFFGNPRKSKLICQATGFSPRQIQVSWLREGKQVGSGVTTDQVQAEAKESGPTTYKVTSTLTIKESDWLGQSMFTCRVDHRGLTFQQQASSMCVP |
